Measured values: patent USRE46211

How the values were obtained:
[1] = target: HP8/HEVIN, extracellular matrix protein (UniProt Q14515); assay: binding of COS-7 expressed antibody to HP8; method and unit not given
[2] = target: mouse myosin IIb (myosin heavy chain IIb), 200 kDa skeletal muscle protein (mouse) (UniProt Q5SX39); assay: cell-based or functional assay
Chain of UniProt Q5SX39 (Q5SX39 whole entry): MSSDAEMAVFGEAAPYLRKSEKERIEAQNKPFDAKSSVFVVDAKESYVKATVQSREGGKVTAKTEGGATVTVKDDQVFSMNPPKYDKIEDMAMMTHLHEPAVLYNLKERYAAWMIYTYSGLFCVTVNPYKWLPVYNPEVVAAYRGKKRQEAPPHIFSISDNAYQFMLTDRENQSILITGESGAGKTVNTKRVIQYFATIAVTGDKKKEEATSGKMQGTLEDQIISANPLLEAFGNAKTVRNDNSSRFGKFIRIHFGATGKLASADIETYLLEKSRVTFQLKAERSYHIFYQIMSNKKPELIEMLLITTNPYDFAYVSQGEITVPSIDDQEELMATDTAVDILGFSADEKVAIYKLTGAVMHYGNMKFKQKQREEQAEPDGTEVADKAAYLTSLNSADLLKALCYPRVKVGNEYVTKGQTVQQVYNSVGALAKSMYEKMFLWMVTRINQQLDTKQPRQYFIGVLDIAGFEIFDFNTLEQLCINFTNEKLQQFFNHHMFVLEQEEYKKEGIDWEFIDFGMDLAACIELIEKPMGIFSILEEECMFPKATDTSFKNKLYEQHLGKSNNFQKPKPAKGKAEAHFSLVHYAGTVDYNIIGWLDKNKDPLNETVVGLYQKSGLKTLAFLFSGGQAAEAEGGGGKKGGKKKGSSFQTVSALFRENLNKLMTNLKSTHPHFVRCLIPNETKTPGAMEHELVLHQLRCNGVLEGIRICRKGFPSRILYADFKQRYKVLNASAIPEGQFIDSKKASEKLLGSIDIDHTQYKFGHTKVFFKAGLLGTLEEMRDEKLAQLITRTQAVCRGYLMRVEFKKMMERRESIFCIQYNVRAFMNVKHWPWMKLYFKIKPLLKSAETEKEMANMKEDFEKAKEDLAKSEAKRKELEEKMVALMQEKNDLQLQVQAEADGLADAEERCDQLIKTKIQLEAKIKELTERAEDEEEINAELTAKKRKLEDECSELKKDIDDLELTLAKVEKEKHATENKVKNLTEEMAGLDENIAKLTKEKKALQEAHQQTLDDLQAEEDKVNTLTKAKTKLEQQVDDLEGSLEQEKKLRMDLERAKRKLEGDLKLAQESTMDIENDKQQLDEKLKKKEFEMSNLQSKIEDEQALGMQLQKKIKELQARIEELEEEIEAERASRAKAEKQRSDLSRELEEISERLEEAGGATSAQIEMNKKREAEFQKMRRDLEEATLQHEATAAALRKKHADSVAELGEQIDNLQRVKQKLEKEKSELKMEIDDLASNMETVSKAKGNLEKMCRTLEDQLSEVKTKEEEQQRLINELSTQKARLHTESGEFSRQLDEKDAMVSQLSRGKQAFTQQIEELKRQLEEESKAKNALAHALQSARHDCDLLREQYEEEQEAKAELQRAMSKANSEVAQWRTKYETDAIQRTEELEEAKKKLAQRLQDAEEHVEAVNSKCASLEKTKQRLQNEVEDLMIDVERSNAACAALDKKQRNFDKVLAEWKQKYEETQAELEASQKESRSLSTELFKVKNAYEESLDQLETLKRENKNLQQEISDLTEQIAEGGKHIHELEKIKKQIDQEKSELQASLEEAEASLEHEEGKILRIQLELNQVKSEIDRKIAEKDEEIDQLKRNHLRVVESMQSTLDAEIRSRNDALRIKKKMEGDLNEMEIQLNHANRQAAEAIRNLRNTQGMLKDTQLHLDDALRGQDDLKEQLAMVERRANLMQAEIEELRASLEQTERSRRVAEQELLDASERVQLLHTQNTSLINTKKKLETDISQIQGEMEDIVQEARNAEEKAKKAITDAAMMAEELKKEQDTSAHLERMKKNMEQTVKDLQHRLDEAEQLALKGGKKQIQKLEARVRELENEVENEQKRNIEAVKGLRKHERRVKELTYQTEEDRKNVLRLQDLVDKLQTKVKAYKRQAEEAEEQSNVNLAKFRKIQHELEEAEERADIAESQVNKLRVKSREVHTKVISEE

Chain of UniProt Q14515 (Q14515 17-664 limits assumed): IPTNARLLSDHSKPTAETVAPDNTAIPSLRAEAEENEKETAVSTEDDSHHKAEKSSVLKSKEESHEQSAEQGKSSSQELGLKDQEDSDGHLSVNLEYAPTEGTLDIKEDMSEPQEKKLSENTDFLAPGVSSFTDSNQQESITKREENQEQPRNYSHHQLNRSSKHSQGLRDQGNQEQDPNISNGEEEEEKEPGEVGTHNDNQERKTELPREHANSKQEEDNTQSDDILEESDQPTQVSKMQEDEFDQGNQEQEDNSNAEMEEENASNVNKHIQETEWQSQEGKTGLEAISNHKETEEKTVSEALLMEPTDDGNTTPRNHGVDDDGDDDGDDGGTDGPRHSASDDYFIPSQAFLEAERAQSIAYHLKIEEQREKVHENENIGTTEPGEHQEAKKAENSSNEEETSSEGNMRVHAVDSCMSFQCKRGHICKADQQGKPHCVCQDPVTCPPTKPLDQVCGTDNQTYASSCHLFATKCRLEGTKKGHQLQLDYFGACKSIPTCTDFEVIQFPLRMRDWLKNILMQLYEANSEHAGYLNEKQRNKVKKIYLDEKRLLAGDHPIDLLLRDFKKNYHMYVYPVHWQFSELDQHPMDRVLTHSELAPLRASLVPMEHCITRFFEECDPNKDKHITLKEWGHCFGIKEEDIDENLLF

“mAb 3E10 VH31 mutant heavy chain with Vk residue 27C mutant light chain (S to D, L CDR1) (antibody)” showed an Antibody Specificity, HP8 [1] of 0.26.
“recombinant mAb 3E10, native heavy chain with native (anti-dsDNA kIII) light chain, expressed in COS-7 cells (antibody)” gave an Antibody Specificity, HP8 [1] of 2.02.
“mAb 3E10 VH31 mutant heavy chain (D to N at residue 31, H CDR1) with native light chain (antibody)” gave an Antibody Specificity, HP8 [1] of 1.3.
“mAb 3E10 VH31 mutant heavy chain with Vk residue 94 mutant light chain (F to D, L CDR3) (antibody)” showed an Antibody Specificity, HP8 [1] of 0.2.
In the case of “mAb 3E10 VH31 mutant heavy chain with Vk residue 92 mutant light chain (R to N, L CDR3) (antibody)”, the Antibody Specificity, HP8 [1] is reported as 1.21.
“mAb 3E10 VH31 mutant heavy chain with Vk residue 32 mutant light chain (Y to F, L CDR1) (antibody)” showed an Antibody Specificity, HP8 [1] of 2.76.
For “mAb 3E10 scFv containing 3E10 VH and VkIII (Vk placed N-terminal of VH)”, the localization of intravenously injected scFv fragments in tissues of FVB mice (histology with anti-his6 antibody) [2] was 20%.
